# Measurements from FireProtDB (doi:10.1021/bi050502v).
# B1: Apolipophorin-3b, P10762 (parent)
# chain: MNTLLAVLMLAVAAQARPDAAGHVNIAEAVQQLNHTIVNAAHELHETLGLPTPDEALNLLTEQANAFKTKIAEVTTSLKQEAEKHQGSVAEQLNRFARNLNNSIHDAATSAQPADQLNSLQSALTNVGHQWQTSQPRPSVAQEAWAPVQSALQEAAEKTKEAAANLQNSIQSAVQKPAN
# Variants of: B1
# Details: Locusta migratoria, pH 7.4, CD, Na2HPO4 KH2PO4 10 mM 2 mM, NaCl 127 mM, reversible: yes, structure 1LS4, whole UniProt chain shown; for ddG of mutation (higher = less stable) / denaturant midpoint (higher = more stable) / unfolding free energy: 25 °C, GdnHCl; for Tm / change of melting temperature, mutant - wild type (higher = more stable): Thermal
Variant,ddG of mutation (higher = less stable),denaturant midpoint (higher = more stable),unfolding free energy,Tm,"change of melting temperature, mutant - wild type (higher = more stable)"
MNTLLAVLMLAVAAQARPDAAGHVNIAEAVQQLNHTIVNAAHELHEALGLPTPDEALNLLTEQANAFKTKIAEVTTSLKQEAEKHQGSVAEQLNRFARNLNNSIHDAATSAQPADQLNSLQSALTNVGHQWQTSQPRPSVAQEAWAPVQSALQEAAEKAKEAAANLQNSIQSAVQKPAN,1.06 kcal/mol,0.37 M,0.99 kcal/mol,,
MNTLLAVLMLAVAAQARPDAAGHVNIAEAVQQKNHTIVNAAHELHETLGLPTPDEALNLLTEQANAFKTKIAEVTTSLKQEAEKHQGSVAEQLNRFARNLNNSIHDAATSAQPADQLNSLQSALTNVGHQWQTSQPRPSVAQEAWAPVQSALQEAAEKTKEAAANLQNSIQSAVQKPAN,1.36 kcal/mol,0.2 M,0.69 kcal/mol,37 °C,-16 °C
MNTLLAVLMLAVAAQARPDAAGHVNIAEAVQQLNHTIVNAAHELHEALGLPTPDEALNLLTEQANAFKTKIAEVTTSLKQEAEKHQGSVAEQLNRFARNLNNSIHDAATSAQPADQLNSLQSALTNVGHQWQTSQPRPSVAQEAWAPVQSALQEAAEKTKEAAANLQNSIQSAVQKPAN,-0.6 kcal/mol,0.62 M,2.65 kcal/mol,57 °C,4 °C
MNTLLAVLMLAVAAQARPDAAGHVNIAEAVQQLNHTIVNAAHELHETLGLPTPDEALNLLTEQANAFKTKIAEVTTSLKQEAEKHQGSVAEQLNRFARNLNNSIHDAATSAQPADQLNSLQSALTNVGHQWQTSQPRPSVAQEAWAPVQSALQEKAEKTKEAAANLQNSIQSAVQKPAN,1.69 kcal/mol,0.16 M,0.36 kcal/mol,38 °C,-15 °C
MNTLLAVLMLAVAAQARPDAAGHVNIAEAVQQLNHTIVNAAHELHETLGLPTPDEALNLLTEQANAFKTKIAEVTTSLKQEAEKHQGSVAEQLNRFARNLNNSIHDAATSAQPADQLNSLQSALTNVGHQWQTSQPRPSVAQEAWAPVQSALQEAAEKAKEAAANLQNSIQSAVQKPAN,1.32 kcal/mol,0.28 M,0.73 kcal/mol,44 °C,-9 °C
